Test results from patent US20220023386A1, “METHOD FOR THE TREATMENT OR PREVENTION OF OSTEOARTHRITIS” (Chondropeptix B.V., priority 2016, published 2022).

Columns and labels:
OA patients = conditions: intra-articular injection, phase-1; cited from earlier work
[1] = system: Isolated chondrocytes from OA patients; test: Treatment of isolated chondrocytes from OA patients, gene expression via qRT-PCR; assay type: cell-based, human; conditions: 1 nM, 24 h, n=6
Experimental: Isolated chondrocytes from OA patients (n=6) were treated with BMP-7 (1 nM) or the 12-mer peptide according to SEQ ID NO: 16 (1 nM) for 24 h. Pro-chondrogenic (FIG. 9A) and hypertrophic (FIGS. 9B, 9C and 9D) gene expression was determined via qRT-PCR and normalized for 28S rRNA levels.

Cartilage explants = test: Safranin-O staining of glycosaminoglycans in cartilage explants; assay type: cell-based, human; conditions: 14 days; BMP-7 1 nM, SEQ ID NO: 8 10 nM; 2 patients
Experimental: Cartilage explants obtained from 2 patients were cultured for 14 days in the presence of BMP-7 (1 nM) or BMP-7 mimicking peptide […] (SEQ ID NO: 8) at 10 nM. Glycosaminoglycans (GAGs), an important component of the extracellular matrix (ECM), were stained with Safranin-O (in red) and other tissues are counterstained with Fast green (in green/blue).

[2] = system: Cartilage explants from OA patient's knee cartilage; test: PGE2 levels via ELISA in cartilage explants; assay type: cell-based, human; conditions: 14 days; BMP-7 1 nM, peptides 10 nM
Experimental: Cartilage explants of 3 mm^2 were taken from OA patient's knee cartilage (n=6) and treated with BMP-7 (1 nM), with peptide […] (SEQ ID NO: 8) at 10 nM or a scrambled irrelevant control peptide (10 nM) for 14 days. Prostaglandin E2 (PGE2) levels, a pro-hypertrophic factor, were determined via an ELISA.

[3] = system: cartilage explants from OA patient's knee articular cartilage; test: Treatment of cartilage explants, hypertrophic gene expression via qRT-PCR; assay type: cell-based, human; conditions: BMP-7 1 nM, SEQ ID NO: 16 10 nM, 24 h
Experimental: 4 mm2 cartilage explants were taken from non-lesion areas of OA patient's knee articular cartilage (n=5) and randomly assigned to different experimental treatment conditions (4 explants per treatment group). After a 24 h equilibration period the explants were treated with BMP-7 (1 nM) or the 12-mer peptide according to SEQ ID NO: 16 (10 nM) for 24 h. Hypertrophic gene expression was determined via qRT-PCR and normalized for 28S rRNA levels. After treatment with BMP-7 or the 12 mer we observed a downregulation of pro-hypertrophic genes, such as Col10a1 (FIG. 10A) and MMP13 (FIG. 10B).

[4] = system: Osteoarthritic chondrocytes; test: BMP-7 rescue of OA-associated chondrocyte phenotype (FIG. 1); assay type: cell-based
Experimental: Osteoarthritic chondrocytes display a typical phenotype that is characterized by decreased expression of SOX9, COL2A1, ACAN and BAPX1/NKX3.2 and an increased expression of RUNX2, COL10A1, ALP, MMP13, ADAMTSS, COX-2 and IL-6 mRNAs (see left panel).
Functional ALP enzyme activity in cell lysates and PGE2 secretion in the culture medium was also normalized upon BMP-7 treatment of OA chondrocytes (right panel).
Expression of indicated mRNAs was determined by RT-qPCR, relatively to control conditions (normalized for 28S rRNA expression). In graphs, error bars represent mean±SEM, statistical differences were calculated as compared to healthy condition. *=p<0.05.

OA = conditions: intra-articular administration, rats; cited from earlier work
[5] = system: Synovial tissue, Hoffa's fat pad tissue and meniscus tissue samples from OA patients; test: PGE2 levels via ELISA in synovial, Hoffa's fat pad and meniscus tissue samples; assay type: cell-based, human; conditions: 24 h; BMP-7 1 nM, peptides 10 nM
Experimental: Synovial tissue samples from OA patients (n=6) were treated with BMP-7 (1 nM), with peptide […] (SEQ ID NO: 8) at 10 nM or a scrambled irrelevant control peptide (10 nM) for 24 h. PGE2 levels were determined via an ELISA.
Hoffa's fat pad tissue samples from OA patients (n=6) were treated with BMP-7 (1 nM) with peptide […] (SEQ ID NO: 8) at 10 nM or a scrambled irrelevant control peptide (10 nM) for 24 h. PGE2 levels were determined via an ELISA.
Meniscus tissue samples from OA patients (n=6) were treated with BMP-7 (1 nM) with peptide […] (SEQ ID NO: 8) at 10 nM or a scrambled irrelevant control peptide (10 nM) for 24 h. PGE2 levels were determined via an ELISA.

[6] = BMP-7 treatment of OA chondrocytes

B1: bone morphogenetic protein-7 (protein)
chain: STGSKQRSQNRSKTPKNQEALRMANVAENSSSDQRQACKKHELYVSFRDLGWQDWIIAPEGYAAYYCEGECAFPLNSYMNATNHAIVQTLVHFINPETVPKPCCAPTQLNAISVLYFDDSSNVILKKYRNMVVRACGCH
modifications: homo sapiens
notes: full-length recombinant human BMP-7, mature polypeptide of 139 amino acids
For B1, the adverse events (OA patients) is listed as “no serious adverse events”, the “COL10A1 gene expression (pro-hypertrophic)” value [1] is listed as “downregulation” and the “COX-2 gene expression (pro-hypertrophic)” value [1] is listed as “downregulation”. For the same molecule, the “Col2a1 gene expression (pro-chondrogenic)” value [1] was “upregulation”, the “RUNX2 gene expression (pro-hypertrophic)” value [1] was “downregulation” and the “Safranin-O intensity (GAGs) compared to control” value (Cartilage explants) was “increased Safranin-O intensity”. For the same molecule, the “PGE2 levels in the cartilage” value [2] was “reduce PGE2 levels”, the Col10a1 gene expression [3] was “downregulation” and the MMP13 gene expression [3] was “downregulation”. For the same molecule, the “concentration at which OA chondrocyte-phenotype suppressive action is most pronounced” value [4] was “around 1 nM”, the “OA-associated chondrocyte phenotype (expression of SOX9, COL2A1, ACAN, BAPX1/NKX3.2, RUNX2, COL10A1, ALP, MMP13, ADAMTS5, COX-2, IL-6 mRNAs)” value ([4]; BMP-7 1 nM) was “able to rescue” and the “effects on the chondrocyte phenotype at high concentration” value ([4]; BMP-7 concentrations higher than 1 nM (eg 10 nM or 100 nM)) was “opposite and negative effects”. For the same molecule, the “Functional ALP enzyme activity in cell lysates” value [4, 6] was “normalized”, the “PGE2 secretion in the culture medium” value [4, 6] was “normalized” and the “OA development and progression” value (OA) was “protects against OA development and delays progression of OA”. The “PGE2 levels in the surrounding tissues (synovial, Hoffa's fat pad, meniscus)” value [5] was “reduce PGE2 levels”.
